Measurements reported in the supplement of paper PMC9170038.

System: MS2 coat protein
Test: apparent KD of MS2 coat protein; designed switch direction (-1 OFF switch, 1 ON switch): -1; higher = weaker reporter binding
How it was run: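 For each design, the apparent KD is the median over clusters of curves fitted to normalised cluster fluorescence. Clusters held RNA switches with common flanks, transcribed on Illumina chips by stalled E. coli RNA polymerase. These were titrated with SNAP-549-labelled MS2 coat protein, doubling from 0.7 or 1.5 nM to 3 µM, without input, with 200 uM small-molecule ligand, or with an oligonucleotide input.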

[1] = input ligand: microRNA oligo, concentration not stated

In the case of “AAGCUAUCUGUAGGAUAUACAACUGAUCUCGAGGUAGAAGGACAUCCAGUUACGCCAACAUGAGGAUCACCCAUGUGGAUCUUG [Eternabot solution 39] (Eterna round: R96, puzzle: Exclusion NG 1)”, the “apparent KD of MS2 coat protein” value (input ligand: FMN 200 uM) was 15.2 nM, the “apparent KD of MS2 coat protein” value [1] was 12.9 nM and the “apparent KD of MS2 coat protein” value (input ligand: none) was 18.4 nM.

For “CCCACAAGCUUUUUGCUCGACAUGAGGAUCACCCAUGUAAAAUGGGUAAAUUUAAAUUGAAACAAUUUAAAUUUGGG [-20.1, -44.2 kcal, A 35%] (Eterna round: R97, puzzle: Sensor, turn-off variant 1)”, the “apparent KD of MS2 coat protein” value (input ligand: FMN 200 uM) was 262 nM and the “apparent KD of MS2 coat protein” value (input ligand: none) was 222 nM.

With “AAAAGAUAAGGAUAUUGAAGGUUCGACAUGAGGAUCACCCAUGUUAUGUUGGAAAAGGGACAAGAAGGUAUGAAAG [salish99_ex5_r4_203] (Eterna round: R97, puzzle: Exclusion 5)” the “apparent KD of MS2 coat protein” value (input ligand: FMN 200 uM) was 31.5 nM and the “apparent KD of MS2 coat protein” value (input ligand: none) was 41.8 nM.

For “AACUCUGAGAAGGAUAUGGUACGGGAAAUGGUACCAGAAGGUUUCACAUGAGGAUCACCCAUGUCGAAUAGUGA [EX6 #68] (Eterna round: R97, puzzle: Exclusion 6)”, the “apparent KD of MS2 coat protein” value (input ligand: FMN 200 uM) was 28.8 nM and the “apparent KD of MS2 coat protein” value (input ligand: none) was 27.4 nM.

In the case of “CGCCCUCCGGUGAGGAUAUUGCCCACCAUGGUCGGCAAGAAGGCACUUGAGGAUCACCCAAGUAAAACAAAUAA [Beraus] (Eterna round: R97, puzzle: Brourd's mod of Exclusion 4)”, the “apparent KD of MS2 coat protein” value (input ligand: FMN 200 uM) was 450 nM and the “apparent KD of MS2 coat protein” value (input ligand: none) was 34.8 nM.

“UGCGUUCAAGGAUAUACAUGAGGAUCACCCAUGUGGAUGGCCGUUGUGUGAACACUUAGUAGAAGGUGACACGG [Eternabot (L2) Solution 5] (Eterna round: R97, puzzle: Exclusion 3)” was tested, and the “apparent KD of MS2 coat protein” value (input ligand: FMN 200 uM) was 51.8 nM and the “apparent KD of MS2 coat protein” value (input ligand: none) was 71.2 nM.

With “CAACAUGAGGAUCACCCAUGUGGCCCUACGUGCUGGCUCGGGCAGGAUAUUAACCAAUGAGUAGUUAAGAAGGGCUCGCAAGUA [Eternabot solution 14] (Eterna round: R96, puzzle: Exclusion NG 3)” the “apparent KD of MS2 coat protein” value (input ligand: FMN 200 uM) was 223 nM, the “apparent KD of MS2 coat protein” value [1] was 40.6 nM and the “apparent KD of MS2 coat protein” value (input ligand: none) was 76.6 nM.

For “GGUUGGCGAGGAUAUACAUGAGGAUCACCCAUGUGAGGGAAAAAAGUGAGAACGAAAAGUAGAAGGCGCUGACG [salish99_ex3_r3_063] (puzzle: Exclusion 3)”, the “apparent KD of MS2 coat protein” value (Eterna round: R95, input ligand: FMN 200 uM) was 10.5 nM, the “apparent KD of MS2 coat protein” value (Eterna round: R95, input ligand: microRNA oligo, concentration not stated) was 54 nM and the “apparent KD of MS2 coat protein” value (Eterna round: R95, input ligand: none) was 80.5 nM.

In the case of “UUUAGUUCAGGAUAUGUAGAUUUAAACAUGAGGAUCACCCAUGUAGAUCCUGAUCCUGCUACAGAAGGGAACAUUU [Exclusion 5: 2:a mod1] (Eterna round: R97, puzzle: Exclusion 5)”, the “apparent KD of MS2 coat protein” value (input ligand: FMN 200 uM) was 72.9 nM and the “apparent KD of MS2 coat protein” value (input ligand: none) was 24.3 nM.

For “CCCGUGUAAGGAUAUCGUUCACUUGGCAAAAGUCGAGUGGACGAGAAGGUACAUGAGGAUCACCCAUGUACGGG [-32.4, -32 kcal, A 28%] (Eterna round: R97, puzzle: Exclusion 4)”, the “apparent KD of MS2 coat protein” value (input ligand: FMN 200 uM) was 406 nM and the “apparent KD of MS2 coat protein” value (input ligand: none) was 282 nM.

With “ACUUGUGUUGAGGAUAUGCGCCGGCUCGCUGGCGCAGAAGGCGGCACAUGAGGAUCACCCAUGUCAGUUCGCGU [salish99_ex6_r004_002] (Eterna round: R97, puzzle: Exclusion 6)” the “apparent KD of MS2 coat protein” value (input ligand: FMN 200 uM) was 300 nM and the “apparent KD of MS2 coat protein” value (input ligand: none) was 26.4 nM.

In the case of “UAUAUAUAGUAAGGAUAUGUAUAUAUUUUAGAAACAGAAGGUACUGACAUGAGGAUCACCCAUGUUUUAGUGUGGGCAUGUAGA [JMF's solution 67] (Eterna round: R96, puzzle: Exclusion NG 1)”, the “apparent KD of MS2 coat protein” value [1] was 52.7 nM.

With “CCUCCCUGAGGAUAUCCACCCUCAUACAUGAGGAUCACCCAUGUUCAUCCGUGGGUACCCGGAGAAGGCAGAUUUC [Megrez-a] (Eterna round: R97, puzzle: Exclusion 5)” the “apparent KD of MS2 coat protein” value (input ligand: FMN 200 uM) was 41.9 nM and the “apparent KD of MS2 coat protein” value (input ligand: none) was 33.1 nM.

“AGAUCACAUGAGGAUCACCCAUGUCAGGAUAUCGUCACUGGAGCCUCGGCUCCAGUGACGAGAAGGGAUAAUUA [E1/4-A2] (Eterna round: R97, puzzle: Exclusion 1)” was tested, and the “apparent KD of MS2 coat protein” value (input ligand: FMN 200 uM) was 116 nM and the “apparent KD of MS2 coat protein” value (input ligand: none) was 69 nM.
